For 1 substance, activity in yeast (β-galactosidase reporter), compared with ACT (fold (against ACT)) results are on record in US6660841.

In the test the target is Gal4-DBD/CREM (UniProt P04386). Put plainly: cell-based or functional assay.

Take ACT/Gal4-AD (from UniProt Q9WTX7 1-284): the activity in yeast (β-galactosidase reporter), compared with ACT (fold (against ACT)) is 2.
